Assay results published in article doi:10.1101/2023.03.02.530905 (bioRxiv, 2023).
Where a chain is given by its changes, count along the chain named.

B1: GM130 N122-oDi-his (other)
chain: MWPPRFPPPRPGMSEETRQSKLAAAKKKLREYQQKNSPGVPAGAKKKKKIKNGHSPERTSASDCQSAENVPTDHTAPAPPSTAAATMFLGVVPSPDADLIQSHDAGNCSNLMEETKTFSSTEGEIAALKQEIAALKKENAALKFEIAALKQG
B2: GM130 N122-oTet-his (other)
chain: B1 chain with I125L, L128I, I132L, L135I, N139L, L142I, F144W, I146L, L149I

Target: the molecule itself
Experiment: cross-linking

Protein	stoichiometry N
B1	2
B2	4
